Test results reported in patent US12173349B2, “Lung protease nanosensors and uses thereof” (Massachusetts Institute of Technology, priority 2018, dated 2024).
Primed or numbered codes have the meaning given here. Where no end group is shown, it is not given here. FAM = carboxyfluorescein fluorophore label; 5FAM′ = 5-carboxyfluorescein

Key:
[1] = urinary filtration of mass-encoded free reporters after IT or IV administration; format: in vivo, mice; conditions: doses 2.5 ng to 25 ng, urine at 1 hour
Excerpt: To enable detection of a broad spectrum of disease-associated proteases in vivo, the 14 peptides of the LUAD substrate panel were appended with mass-encoded reporters (PP1-14; Table 3). Following substrate proteolysis, the reporters diffuse away from the nanoparticle scaffold and are sized so as to be able to efficiently cross into the bloodstream, where they can be concentrated into the urine by glomerular filtration (FIG. 1B). As previously described (Kwong et al., Nat Biotechnol 31, 63-70, 2013), variable labeling of the 14-mer Glu-Fibrinopeptide B (Glu-Fib) with stable isotope-labeled amino acids was used to uniquely barcode each of 14 peptide substrates. Multiple reaction monitoring via a liquid chromatography triple quadrupole mass spectrometer (LC-MS/MS) enables quantitative assessment of peptide-liberated urinary reporter concentration within a broad linear range (1-1000 ng/mL, FIG. 8A). Using mass-encoded free reporters, the filtration of Glu-Fib reporters into the urine after IT or IV administration was assessed and strong linearity of the MS assay for both routes of delivery for input doses between 2.5 ng and 25 ng (R^2=1.00, FIG. 8B) was found for both routes of delivery (sloperIT=0.075 ng^−1, slopeIV=0.077 ng^−1; FIG. 8B).
Liquid chromatography/tandem mass spectrometry was performed by Syneos Health (Princeton, NJ) using a Sciex 6500 triple quadrupole instrument. […]

[2] = target: T1, MMP7 (Mus musculus, UniProt Q10738); assay: recombinant host protease cleavage assay; format: biochemical
T1 sequence (Q10738 95-264): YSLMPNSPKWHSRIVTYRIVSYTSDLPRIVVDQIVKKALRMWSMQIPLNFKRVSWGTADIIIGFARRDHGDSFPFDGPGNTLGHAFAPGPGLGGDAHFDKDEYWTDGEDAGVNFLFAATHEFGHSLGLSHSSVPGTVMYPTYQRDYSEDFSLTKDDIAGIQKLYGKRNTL
Method: (§1) The specificity of LAS and ELA for P. aeruginosa cleavage was tested by collecting supernatants from PA01 or Staphylococcus aureus cultures and incubating them with FRET-paired substrates LAS-Q and ELA-Q in 384 well plates. […] To investigate whether the LAS and ELA substrates are also susceptible to cleavage by host proteases, each was incubated with recombinant mouse proteases.
(§2) Supernatant from PA01 and S. aureus were collected and added to substrates in 384 well plates and dequenching of FAM was monitored at 37° C. (Tecan). Fluorescence change at 30 minutes was reported. For recombinant protease assays, enzyme was added to the substrates in enzyme-specific buffer (MMP7 & 9 buffer: 50 mM Tris, 150 mM NaCl, 5 mM CaCl2), […], pH 7.5; Thrombin: PBS; NE: 100 mM HEPES, 500 mM NaCl, 0.05% Tween 20) in a 384 well plate for time-lapse fluorimetry to measure dequenching at 37° C. (Tecan).

[3] = target: MMP13 (Mus musculus, UniProt P33435); assay: recombinant host protease cleavage assay; format: biochemical
Method: as §1, §2

[4] = target: thrombin (Mus musculus, UniProt P19221); assay: recombinant host protease cleavage assay; format: biochemical
Method: as §1, §2

[5] = system: PA01 supernatant; assay: cleavage of FRET-paired substrates by bacterial supernatant; format: biochemical, Pseudomonas aeruginosa; conditions: PA01 culture supernatant, fluorescence change at 30 minutes
Method: as §1, §2

[6] = system: P. aeruginosa clinical isolate strains; assay: cleavage of FRET-paired substrates by clinical isolate supernatants; format: biochemical, Pseudomonas aeruginosa; conditions: five clinical isolate strains
Method: P. aeruginosa strains isolated from de-identified clinical samples were generously provided by Dr. Deborah Hung, MD, PhD (Massachusetts General Hospital). Cultures of each were grown in LB broth overnight, then were subcultured in fresh LB and each strain grown to OD-matched mid log phase (OD600˜0.5). Supernatants were collected by centrifugation and substrate cleavage was monitored as described above.

[7] = target: T2, recombinant human MMP13 (Homo sapiens, UniProt P45452); assay: cleavage of aerosolized fluorogenic nanosensor by MMP13; format: biochemical; conditions: 50 nM MMP13, 5 μM nanosensor
T2 construct: purchased Enzo
Method: As a step toward developing a more clinically relevant delivery method, particle durability and biodistribution after aerosolization were also characterized.
Analysis of nanoparticle stability and protease cleavage susceptibility following aerosolization used […] 250 μM PEG-840 kDa scaffold (FIGS. 22B-22E) or 5 μM PPQ5 PEG-840 kDa nanosensors (FIG. 22F). Protease cleavage assays of aerosolized nanoparticles used 50 nM of recombinant human MMP13 (Enzo).

Glu-Fib reporters: mass-encoded free reporters, stable isotope-labeled variants of 14-mer Glu-Fibrinopeptide B
slope of urinary reporter signal versus input dose ([1]; IT administration): 0.075 ng⁻¹
slope of urinary reporter signal versus input dose ([1]; IV administration): 0.077 ng⁻¹

LAS-Q: FRET-paired (FAM fluorophore, Dabcyl quencher) substrate for P. aeruginosa protease LasA; includes SEQ ID NO: 45 (GLGGGAGK(FAM); also: Dabcyl quencher, site not given here)
cleavage by recombinant protease [2]: resist cleavage
cleavage by recombinant protease [3]: resist cleavage
cleavage by recombinant protease [4]: resist cleavage
cleavage by supernatant (fluorescence signal) [5]: greater selectivity for cleavage of LAS-Q by PA01
strains whose supernatant gave significant cleavage [6]: 3 of the 5 strains

PEG-PPQ5: fluorogenic nanosensor, PPQ5 on PEG-840 kDa ({5FAM′}-GGPLGVRGKKC; not fully specified (residue 10); printed as GGPLGVRGKK(CPQ2)-PEG2-C; also: on PEG-840 kDa carrier, site not given here)
sensitivity to in vitro cleavage pre- versus post-aerosolization [7]: equally sensitive
